{"source": "patent US20200040064A1", "about": "(OHIO STATE INNOVATION FOUNDATION, published 2020)", "binders": {"B1": {"name": "fluorescently labeled human Fcγ receptor CD64 (receptor)", "chain": "QVDTTKAVITLQPPWVSVFQEETVTLHCEVLHLPGSSSTQWFLNGTATQTSTPSYRITSASVNDSGEYRCQRGLSGRSDPIQLEIHRGWLLLQVSSRVFTEGEPLALRCHAWKDKLVYNVLYYRNGKAFKFFHWNSNLTILKTNISHNGTYHCSGMGKHRYTSAGISVTVKELFPAPVLNASVTSPLLEGNLVTLSCETKLLLQRPGLQLYFSFYMGSKTLRGRNTSSEYQILTARREDSGLYWCEAATEDGNVLKRSPELELQVLGLQLPTP", "modifications": "fluorescently labeled"}}, "target": "T1, protein A on wild type Staphylococcus aureus newman strain bacteria (Staphylococcus aureus (newman strain), UniProt P0A015 37-419)", "T1 construct": "also called wt S.A; Staphylococcus aureus (wt)", "assay": "flow cytometry, labeled CD64 on wt S. aureus in the absence of rituximab"}
{"binder": "B1", "values": [{"measurement": "binding result", "value": "no binding"}]}
